Assay results from FireProtDB (doi:10.1021/bi026827i).

Details: Saccharomyces cerevisiae (strain ATCC 204508 / S288c); pH 7; 25 °C; GdnHCl; CD; Tris 20 mM; NaCl 40 mM; structure 1YCC

Sequence of Cytochrome c isoform 1 K28Q, P00044 (P00044 whole entry K28Q, canonical isoform): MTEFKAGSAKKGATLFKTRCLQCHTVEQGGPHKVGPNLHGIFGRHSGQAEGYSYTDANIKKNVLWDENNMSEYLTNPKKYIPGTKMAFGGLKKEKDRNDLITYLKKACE
Sequence of Cytochrome c isoform 1 K17Q, P00044 (P00044 whole entry K17Q, canonical isoform): as the sequence (P00044 whole entry K28Q, canonical isoform) above, with K17Q, Q28K counted along it
Sequence of Cytochrome c isoform 1 K33Q, P00044 (P00044 whole entry K33Q, canonical isoform): as the sequence (P00044 whole entry K28Q, canonical isoform) above, with Q28K, K33Q counted along it
Sequence of Cytochrome c isoform 1 K60Q|K61Q, P00044 K60Q K61Q (P00044 whole entry K60Q/K61Q, canonical isoform): as the sequence (P00044 whole entry K28Q, canonical isoform) above, with Q28K, K60Q, K61Q counted along it
Sequence of Cytochrome c isoform 1 K10Q|K11Q, P00044 K10Q K11Q (P00044 whole entry K10Q/K11Q, canonical isoform): as the sequence (P00044 whole entry K28Q, canonical isoform) above, with K10Q, K11Q, Q28K counted along it

Substance	denaturant m value [kcal/mol/M]	denaturant midpoint (higher = more stable) [M]	unfolding free energy [kcal/mol]
Cytochrome c isoform 1 K10Q|K11Q, P00044 K10Q K11Q	3.06	1.05	3.2
Cytochrome c isoform 1 K17Q, P00044	5.33	0.64	3.37
Cytochrome c isoform 1 K28Q, P00044	3.2	0.94	2.96
Cytochrome c isoform 1 K33Q, P00044	3.7	1.09	4.04
Cytochrome c isoform 1 K60Q|K61Q, P00044 K60Q K61Q	3.06	0.99	3.04
